According to FireProtDB (doi:10.1002/prot.340220405):

B1: Chemotaxis protein CheY, P0AE67 (parent)
chain: MADKELKFLVVDDFSTMRRIVRNLLKELGFNNVEEAEDGVDALNKLQAGGYGFVISDWNMPNMDGLELLKTIRADGAMSALPVLMVTAEAKKENIIAAAQAGASGYVVKPFTAATLEEKLNKIFEKLGM

Variants of: B1
Settings: Escherichia coli (strain K12); pH 8; 25 °C; Urea; CD; Na-PIPES 50 mM; reversible: yes; structure 1CEY; whole UniProt chain shown

D64G F14N
ddG of mutation (higher = less stable): -2.6 kcal/mol | denaturant m value: 1.72 kcal/mol/M | denaturant midpoint (higher = more stable): 4.77 M | unfolding free energy: 8.2 kcal/mol

A36G F14N
ddG of mutation (higher = less stable): 0.2 kcal/mol | denaturant m value: 1.6 kcal/mol/M | denaturant midpoint (higher = more stable): 3.41 M | unfolding free energy: 5.4 kcal/mol

A77G
ddG of mutation (higher = less stable): 0.3 kcal/mol | denaturant m value: 1.56 kcal/mol/M | denaturant midpoint (higher = more stable): 3.32 M | unfolding free energy: 5.3 kcal/mol

A97G F14N
ddG of mutation (higher = less stable): -1.5 kcal/mol | denaturant m value: 1.77 kcal/mol/M | denaturant midpoint (higher = more stable): 4 M | unfolding free energy: 7.1 kcal/mol

A74G
ddG of mutation (higher = less stable): 0.3 kcal/mol | denaturant m value: 1.6 kcal/mol/M | denaturant midpoint (higher = more stable): 3.32 M | unfolding free energy: 5.3 kcal/mol

A80G
ddG of mutation (higher = less stable): -0.6 kcal/mol | denaturant m value: 1.68 kcal/mol/M | denaturant midpoint (higher = more stable): 3.65 M | unfolding free energy: 6.2 kcal/mol

A99G
ddG of mutation (higher = less stable): 0.5 kcal/mol | denaturant m value: 1.58 kcal/mol/M | denaturant midpoint (higher = more stable): 3.23 M | unfolding free energy: 5.1 kcal/mol

T112A F14N
ddG of mutation (higher = less stable): -1.4 kcal/mol | denaturant m value: 1.68 kcal/mol/M | denaturant midpoint (higher = more stable): 4.12 M | unfolding free energy: 7 kcal/mol

G76A F14N
ddG of mutation (higher = less stable): -3.4 kcal/mol | denaturant m value: 1.77 kcal/mol/M | denaturant midpoint (higher = more stable): 5.08 M | unfolding free energy: 9 kcal/mol

T112G F14N
ddG of mutation (higher = less stable): -1.9 kcal/mol | denaturant m value: 1.68 kcal/mol/M | denaturant midpoint (higher = more stable): 4.46 M | unfolding free energy: 7.5 kcal/mol

A88G
ddG of mutation (higher = less stable): -0.1 kcal/mol | denaturant m value: 1.64 kcal/mol/M | denaturant midpoint (higher = more stable): 3.48 M | unfolding free energy: 5.7 kcal/mol

A98G F14N
ddG of mutation (higher = less stable): -1.6 kcal/mol | denaturant m value: 1.76 kcal/mol/M | denaturant midpoint (higher = more stable): 4.09 M | unfolding free energy: 7.2 kcal/mol

F14N
ddG of mutation (higher = less stable): -2.9 kcal/mol | denaturant m value: 1.8 kcal/mol/M | denaturant midpoint (higher = more stable): 4.72 M | unfolding free energy: 8.5 kcal/mol

K91A F14N
ddG of mutation (higher = less stable): -3.3 kcal/mol | denaturant m value: 1.86 kcal/mol/M | denaturant midpoint (higher = more stable): 4.8 M | unfolding free energy: 8.9 kcal/mol

A103G F14N
ddG of mutation (higher = less stable): -1.2 kcal/mol | denaturant m value: 1.75 kcal/mol/M | denaturant midpoint (higher = more stable): 3.89 M | unfolding free energy: 6.8 kcal/mol

D64A F14N
ddG of mutation (higher = less stable): -1.7 kcal/mol | denaturant m value: 1.69 kcal/mol/M | denaturant midpoint (higher = more stable): 4.32 M | unfolding free energy: 7.3 kcal/mol

A42G F14N
ddG of mutation (higher = less stable): -0.6 kcal/mol | denaturant m value: 1.73 kcal/mol/M | denaturant midpoint (higher = more stable): 3.58 M | unfolding free energy: 6.2 kcal/mol

A114G
ddG of mutation (higher = less stable): 0.5 kcal/mol | denaturant m value: 1.6 kcal/mol/M | denaturant midpoint (higher = more stable): 3.2 M | unfolding free energy: 5.1 kcal/mol

D38A F14N
ddG of mutation (higher = less stable): -1 kcal/mol | denaturant m value: 1.87 kcal/mol/M | denaturant midpoint (higher = more stable): 3.58 M | unfolding free energy: 6.6 kcal/mol

D38G F14N
ddG of mutation (higher = less stable): -1.9 kcal/mol | denaturant m value: 1.81 kcal/mol/M | denaturant midpoint (higher = more stable): 4.14 M | unfolding free energy: 7.5 kcal/mol
